Measured values: patent publication US20120208867, “HMGB1 BINDING NUCLEIC ACID MOLECULE AND APPLICATIONS THEREOF” (published 2012)

Tests used:
His-tagged HMGB1 [1] = target: T1, His-tagged HMGB1 (UniProt P09429 P09429:1-215); assay: SPR; superior to R8c6_1; 635 nM protein; conditions: tags: N-terminal His-tag
Description: (§1) First, a sensor chip (trade name: Sensor Chip SA, manufactured by GE Heathcare) specially made for a BIACORE was set on the aforementioned BLACORE (registered trademark) X. Biotinylate deoxythymidine (5 μmol/L) was injected into the flow cell 2 of the aforementioned sensor chip using a running buffer and subjected to binding until the signal intensity (RU: resonance unit) reached about 1000 RU. For the aforementioned biotinylated deoxythymidine, 20-base-long deoxythymidine in which the 5′ end was biotinylated was used. Then, 10 μg/mL of an RNA aptamer was injected at a flow rate of 20 μL/min for 1 min into the aforementioned flow cells 1 and 2 of the aforementioned chip using a running buffer and subjected to binding until the signal intensity reached about 1000 RU. Next, 675 nmol/L of the aforementioned His-tag-added HMGB1 was injected at a flow rate of 20 μL/min for 30 sec using the aforementioned running buffer, and under the same conditions the aforementioned running buffer was allowed to flow continuously for washing. Simultaneously with the injection of the aforementioned His-tag-added HMGB1 and washing with the aforementioned running buffer, signal intensity was measured. The aforementioned running buffer was composed of 20 mmol/L of HEPES, 500 mmol/L of NaCl, 0.1 mmol/L of MgCl₂, and 0.1% Triton X-100 (registered trademark), with the pH thereof being 7.2. As a blocking agent for suppressing nonspecific binding, tRNA was used in a concentration of 1 mg/mL. In a comparative example, signal intensity was measured in the same manner except that the aforementioned comparative example RNA was used in place of the aforementioned example RNA aptamers.
An analysis of ability to bind to His-tag-added HMGB1 was carried out in the same manner as in (2) above of the aforementioned Example 1 except that the aforementioned RNA aptamers were used, the concentration of the aforementioned His-tag-added HMGB1 was 635 nmol/L, and the injection time of the aforementioned His-tag-added HMGB1 was 60 seconds. Also, an analysis was carried on the aforementioned 40N as a comparative example in the same manner.

His-tagged HMGB1 [2] = target: T1, His-tagged HMGB1; assay: SPR; 200 nM protein, 500 mM NaCl; conditions: tags: N-terminal His-tag
Description: as §1
An analysis of ability to bind to His-tag-added HMGB1 was carried out in the same manner as in (2) above of the aforementioned Example 1 except that the aforementioned fluorinated RNA aptamers were used, the concentration of His-tag-added HMGB1 was 200 nmol/L, and the injection time of the aforementioned His-tag-added HMGB1 was 60 seconds. Also, an analysis was carried out in the same manner on the aforementioned 2′F-40N and unmodified R8c6_{—}1 that was not fluorinated.

His-tagged HMGB1 [3] = target: T1, His-tagged HMGB1; assay: SPR; physiological 150 mM NaCl; conditions: tags: N-terminal His-tag
Description: as §1
The ability of each of the aforementioned RNA aptamers to bind to HMGB1 under physiological conditions was examined. An analysis of binding ability was carried out in the same manner as in (2) above except that the 500 mmol/L NaCl concentration of the aforementioned running buffer was changed so as to conform to the physiology condition of a living body of 150 mmol/L, and the injection time of the aforementioned His-tag-added HMGB1 was 45 sec.

His-tagged MIF = His-tagged MIF (UniProt P14174 P14174:2-115); assay: SPR; 300 nM His-MIF specificity control
Chain of His-tagged MIF (P14174 2-115, one chain of several): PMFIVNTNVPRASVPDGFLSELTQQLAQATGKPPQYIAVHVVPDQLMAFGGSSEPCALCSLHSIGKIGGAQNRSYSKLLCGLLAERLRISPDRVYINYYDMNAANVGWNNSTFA
Description: as §1
The ability of each of the aforementioned RNA aptamers to bind to His-tag was examined. An analysis of the aforementioned binding ability was carried out in the same manner as in (2) above except that 300 nmol/L of the aforementioned His-tag-added MIF protein was used in place of the aforementioned His-tag-added HMGB1.

HMGB1 (no His-tag) = HMGB1 (no His-tag) (UniProt P09429 P09429:1-215); assay: SPR; 1 uM untagged HMGB1, 500 mM NaCl; conditions: tags: none
Chain of HMGB1 (no His-tag) (P09429 whole entry, one chain of several): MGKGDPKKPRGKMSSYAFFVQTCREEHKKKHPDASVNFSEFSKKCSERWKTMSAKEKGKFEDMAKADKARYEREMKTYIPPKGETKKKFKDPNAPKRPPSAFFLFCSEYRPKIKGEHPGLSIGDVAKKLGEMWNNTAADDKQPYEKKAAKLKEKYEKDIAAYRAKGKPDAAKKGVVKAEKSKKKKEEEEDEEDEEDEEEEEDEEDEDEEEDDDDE
Description: as §1
The ability of each of the aforementioned RNA aptamers to bind to HMGB1 in which no His-tag was added to the N-terminus was examined. An analysis of the aforementioned binding ability was carried out in the same manner as in (2) above except that 1 μmol/L of the aforementioned HMGB1 was used in place of the aforementioned His-tag-added HGB1 and the injection time of the aforementioned HMGB1 was 60 sec.

His-tagged HMGB1 [4] = target: T1, His-tagged HMGB1; assay: SPR; 160 nM protein; conditions: tags: N-terminal His-tag
Description: as §1
An analysis of ability to bind to His-tag added HMGB1 was carried out in the same manner as in (2) above of the aforementioned Example 1 except that the aforementioned RNA aptamers were used, and the concentration of the aforementioned His-tag-added HMGB1 was 160 nmol/L. Also, an analysis was carried on the aforementioned 40N as a comparative example in the same manner. FIGS. 12 and 13 show the results.

His-tagged HMGB1 [5] = target: T1, His-tagged HMGB1; assay: SPR; 200 nM protein, 150 mM NaCl; above unmodified 40N; conditions: tags: N-terminal His-tag
Description: as §1
An analysis of ability to bind to the aforementioned His-tag-added HMGB1 (manufactured by Sigma) was carried out in the same manner as in (2) above of the aforementioned Example 1 except that the aforementioned fluorinated RNA aptamers were used, the concentration of the aforementioned His-tag-added HMGB1 was 200 nmol/L, the concentration of NaCl in the aforementioned running buffer was 150 mmol/L, and the injection time of the aforementioned His-tag-added HMGB1 was 60 seconds. Also, an analysis was carried out in the same manner on unmodified R8c6_{—}1 that was not fluorinated.

T1 sequence (P09429 whole entry, one chain of several): as above

Row | Binder | binding result (His-tagged HMGB1 [3]) | binding result (His-tagged MIF) | binding result (HMGB1 (no His-tag)) | other results
1 | R8c6_1-20 (ssRNA) RNA: GGGUACAGUAAGACACGUAGCACCAGUCUGACGUUUGUCGUCAGUGCCUGGACGUGCAGU |  |  |  | binding result (His-tagged HMGB1 [1]): binds
2 | R8c6_1-21 (ssRNA) RNA: GGGACAGUAAGACACGUAGCACCAGUCUGACGUUUGUCGUCAGUGCCUGGACGUGCAGU |  |  |  | binding result (His-tagged HMGB1 [1]): binds
3 | 2'F-R8c6_1-21 (ssRNA, 2'-F on all C and U) RNA: GGGACAGUAAGACACGUAGCACCAGUCUGACGUUUGUCGUCAGUGCCUGGACGUGCAGU |  |  |  | binding result (His-tagged HMGB1 [2]): binds
4 | #34 (ssRNA) RNA: GGGACGCUCACGUACGCUCAAUUCACCUCAGCAUGUCCGCUUGUGACGAUGGAGGCACCUUCAGUGCCUGGACGUGCAGU | binds | no binding | binds | 
5 | 2'F-R8c6_1-4 (ssRNA, 2'-F on all C and U) RNA: GGGACGCUCACGUACGCUCAGAGUACAGUAAGACACGUAGCACCAGUCUGACGUUUGUCGUCAGUGCCUGGACGUG |  |  |  | binding result (His-tagged HMGB1 [2]): binds
6 | R8c6_1-18 (ssRNA) RNA: GGGAGUACAGUAAGACACGUAGCACCAGUCUGACGUUUGUCGUCAGUGCCUGGACGUGCAGU |  |  |  | binding result (His-tagged HMGB1 [1]): binds
7 | #10 (ssRNA) RNA: GGGACGCUCACGUACGCUCAUAGUCAAGGUGAAAACCCCCAUAGAGACUUCAGUGCCUGGACGUGCAGU | binds | no binding | binds | 
8 | R8c6_1-18-S4 (ssRNA) RNA: GGGAGUACAGUAAGACACGUAGCACCAGUCGUUUGUCGUGCCUGGACGUGCAGU |  |  |  | binding result (His-tagged HMGB1 [4]): binds
9 | 2'F-C-R4_9068 (ssRNA, 2'-F on all C) RNA: GGGACGCUCACGUACGCUCAUGAUAUUUAAAUUUGGCCGCGUUUAAAACAUCCCCUACGAUCAGUGCCUGGACGUGCAGU |  |  |  | binding result (His-tagged HMGB1 [5]): binds
10 | 2'F-U-R4_9068 (ssRNA, 2'-F on all U) RNA: GGGACGCUCACGUACGCUCAUGAUAUUUAAAUUUGGCCGCGUUUAAAACAUCCCCUACGAUCAGUGCCUGGACGUGCAGU |  |  |  | binding result (His-tagged HMGB1 [5]): binds
11 | #06 (ssRNA) RNA: GGGACGCUCACGUACGCUCAUACACUGCACGCUCCGCUUUGAACAUCAAUGGAGGCCCUGUCAGUGCCUGGACGUGCAGU | binds | no binding | binds | 
12 | #36 (ssRNA) RNA: GGGACGCUCACGUACGCUCACCUAGCACGUCCGUUUCUGGAUCUGUCAGUUAGAGGCCUAUCAGUGCCUGGACGUGCAGU | binds | no binding | binds | 
13 | #80 (ssRNA) RNA: GGGACGCUCACGUACGCUCACAUCUGAAUUUAAGCCACGUAGAACCAGGCCCUCCACGCGUCAGUGCCUGGACGUGCAGU | binds | no binding | binds | 
14 | R8c6_1-15 (ssRNA) RNA: GGGCAGAGUACAGUAAGACACGUAGCACCAGUCUGACGUUUGUCGUCAGUGCCUGGACGUGCAGU |  |  |  | binding result (His-tagged HMGB1 [1]): binds
15 | 2'F-R8c6_1-15 (ssRNA, 2'-F on all C and U) RNA: GGGCAGAGUACAGUAAGACACGUAGCACCAGUCUGACGUUUGUCGUCAGUGCCUGGACGUGCAGU |  |  |  | binding result (His-tagged HMGB1 [2]): binds
16 | 2'F-R8c6_1-1 (ssRNA, 2'-F on all C and U) RNA: GGGACGCUCACGUACGCUCAGAGUACAGUAAGACACGUAGCACCAGUCUGACGUUUGUCGUCAGUGCCUGGACGUGCAG |  |  |  | binding result (His-tagged HMGB1 [2]): binds
17 | GGGUAGCACCAGUCUGACGUUUGUCGUCAGUGCCUGGACGUGCACC (ssRNA) [R8c6_1-34CC] |  |  |  | binding result (His-tagged HMGB1 [4]): binds
18 | #47 (ssRNA) RNA: GGGACGCUCACGUACGCUCAAAAAACUACUGCCGAACCGUAAGACACGUAGAACCAGGCAUCAGUGCCUGGACGUGCAGU | binds | no binding | binds | 
19 | GGGCACGUAGCACCAGUCUGACGUUUGUCGUCAGUGCCUGGACGUGCAGU (ssRNA) [R8c6_1-30] |  |  |  | binding result (His-tagged HMGB1 [4]): binds
20 | GGGAGUACAGUAAGACACGUAGCACCAGUGUGCCUGGACGUGCAGU (ssRNA) [R8c6_1-18-S6] |  |  |  | binding result (His-tagged HMGB1 [4]): binds
21 | #08 (ssRNA) RNA: GGGACGCUCACGUACGCUCAAGUCCCUUGACACGUCCGUUUUCUAACUGGAAUAGAGGCCUCAGUGCCUGGACGUGCAGU | binds | no binding | binds | 
